Our source for the increase of the area under the tetramer peak, stoichiometry N and Kd values is publication doi:10.1101/2020.05.11.088153.

One may read the stoichiometry N as the number of molecules, sites or subunits per partner or assembly. As a reminder, the Kd is a measure of binding affinity in units of concentration.

Assay [1] has as its target βPFO_(Aβ(1-42)) tetramer (membrane-associated β-sheet pore forming tetramer of Aβ(1-42)) (UniProt P05067). As to the kind of experiment: SEC.
Assay [2] shares this target. As to the kind of experiment: native MS.
The target is the same in assay [3]. Description: ITC. (In ITC the heat of successive injections is recorded.)

Several values for one entry are separate records, joined by “and”; a condition that tells them apart may be missing. Equal values may be shown once.

Regarding “somatostatin-14 (from UniProt P61278 103-116) (peptide)”, the increase of the area under the tetramer peak in assay [1] is 20%. The stoichiometry N in assay [2] was 1 and 2; in assay [3], 2. The Kd in assay [3] is 23 µM.
